Measurements reported in article PMC2659244 (The Journal of Biological Chemistry, 2009).
Blank lines part the entries; values can stand above or below the molecule they belong to.

T1: His-Avi-tagged β3-integrin tail, biotinylated (UniProt P05106 742-788, biotin (biotinylated tails, held on NeutrAvidin))
T1 chain (looked up): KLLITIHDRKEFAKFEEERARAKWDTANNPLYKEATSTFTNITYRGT

T2: His-Avi-tagged β1A-integrin tail, biotinylated (UniProt P05556-1 752-798, biotin (biotinylated tails, held on NeutrAvidin))
T2 chain (looked up): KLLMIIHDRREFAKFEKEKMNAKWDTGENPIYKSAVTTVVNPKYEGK

B1: talin rod polypeptide 1974-2541 (domain or fragment, UniProt P26039 1974-2541, looked up)
chain: GTQACITAASAVSGIIADLDTTIMFATAGTLNREGAETFADHREGILKTAKVLVEDTKVLVQNAAGSQEKLAQAAQSSVATITRLADVVKLGAASLGAEDPETQVVLINAVKDVAKALGDLISATKAAAGKVGDDPAVWQLKNSAKVMVTNVTSLLKTVKAVEDEATKGTRALEATTEHIRQELAVFCSPEPPAKTSTPEDFIRMTKGITMATAKAVAAGNSCRQEDVIATANLSRRAIADMLRACKEAAFHPEVAPDVRLRALHYGRECANGYLELLDHVLLTLQKPNPDLKQQLTGHSKRVAGSVTELIQAAEAMKGTEWVDPEDPTVIAENELLGAAAAIEAAAKKLEQLKPRAKPKEADESLNFEEQILEAAKSIAAATSALVKAASAAQRELVAQGKVGAIPANALDDGQWSQGLISAARMVAAATNNLCEAANAAVQGHASQEKLISSAKQVAASTAQLLVACKVKADQDSEAMKRLQAAGNAVKRASDNLVKAAQKAAAFEDQENETVVVKEKMVGGIAQIIAAQEEMLRKERELEEARKKLAQIRQQQYKFLPSELRDEH
B2: talin IBS2-A (residues 1974-2140), His/V5-tagged (domain or fragment, mouse, UniProt P26039 1974-2140, looked up)
chain: GTQACITAASAVSGIIADLDTTIMFATAGTLNREGAETFADHREGILKTAKVLVEDTKVLVQNAAGSQEKLAQAAQSSVATITRLADVVKLGAASLGAEDPETQVVLINAVKDVAKALGDLISATKAAAGKVGDDPAVWQLKNSAKVMVTNVTSLLKTVKAVEDEAT
B3: talin IBS2-A (residues 1974-2140), His tag removed (domain or fragment, mouse, UniProt P26039 1974-2140, looked up)
chain: B2 chain
B4: talin IBS2-B (residues 2137-2293), His/V5-tagged (domain or fragment, mouse, UniProt P26039 2137-2293, looked up)
chain: DEATKGTRALEATTEHIRQELAVFCSPEPPAKTSTPEDFIRMTKGITMATAKAVAAGNSCRQEDVIATANLSRRAIADMLRACKEAAFHPEVAPDVRLRALHYGRECANGYLELLDHVLLTLQKPNPDLKQQLTGHSKRVAGSVTELIQAAEAMKGT
B5: chicken vinculin domain 1 (residues 1-258) (domain or fragment, UniProt P12003 1-258, looked up)
chain: MPVFHTRTIESILEPVAQQISHLVIMHEEGEVDGKAIPDLTAPVSAVQAAVSNLVRVGKETVQTTEDQILKRDMPPAFIKVENACTKLVRAAQMLQADPYSVPARDYLIDGSRGILSGTSDLLLTFDEAEVRKIIRVCKGILEYLTVAEVVETMEDLVTYTKNLGPGMTKMAKMIDERQQELTHQEHRVMLVNSMNTVKELLPVLISAMKIFVTTKNTKSQGIEEALKNRNFTVEKMSAEINEIIRVLQLTSWDEDAW
B6: talin IBS2 polypeptide (residues 1974-2293), His/V5-tagged (domain or fragment, mouse, UniProt P26039 1974-2293, looked up)
chain: GTQACITAASAVSGIIADLDTTIMFATAGTLNREGAETFADHREGILKTAKVLVEDTKVLVQNAAGSQEKLAQAAQSSVATITRLADVVKLGAASLGAEDPETQVVLINAVKDVAKALGDLISATKAAAGKVGDDPAVWQLKNSAKVMVTNVTSLLKTVKAVEDEATKGTRALEATTEHIRQELAVFCSPEPPAKTSTPEDFIRMTKGITMATAKAVAAGNSCRQEDVIATANLSRRAIADMLRACKEAAFHPEVAPDVRLRALHYGRECANGYLELLDHVLLTLQKPNPDLKQQLTGHSKRVAGSVTELIQAAEAMKGT
B7: IBS2: recombinant murine talin residues 1974-2293, two five-helix bundles, integrin-binding site 2 (protein)
chain: B6 chain
modifications: left off: His tag, N-terminal, kept | V5 epitope, N-terminal, kept

Columns and labels:
[1] = biological target: T3, talin IBS2 polypeptide (residues 1974-2293), His tag removed (mouse, UniProt P26039 1974-2293); experiment: NMR titration
[2] = biological target: T1, His-Avi-tagged β3-integrin tail, …; experiment: ELISA
[3] = biological target: B5; experiment: SEC
[4] = biological target: T3, talin IBS2 polypeptide (residues …); experiment: SEC
[5] = biological target: T2, His-Avi-tagged β1A-integrin tail, …; experiment: ELISA
β3-integrin tail = experiment: ELISA-type binding of talin polypeptides to immobilized β3-integrin tails

- binding result [1]: binds
Molecule: KLLITIHDRKEFAKFEEERARAKWDTANNPLYKEATSTFTNITYRGT (peptide, UniProt P05106 742-788, looked up) [full-length β3-integrin tail peptide (residues 716-762)]

Molecule: B1
- EC50 [2]: > 2500 nM

Molecule: B2
- EC50 [2]: > 2500 nM

Molecule: B3
- binding result [3]: binds

Molecule: B4
- EC50 [2]: > 2500 nM

Molecule: B5
- binding result [4]: binds

Molecule: B6
- EC50 [2]: 900 ± 200 nM
- EC50 [5]: 900 ± 100 nM

Molecule: B7
- affinity for β-integrin tails, fold weaker than binding by the talin FERM domain (β3-integrin tail): ~2 fold
